The experiment concerns the target T1, human ecto-nucleoside triphosphate diphosphohydrolase-3 (NTPDase3) (human) (UniProt O75355).
T1 sequence (looked up): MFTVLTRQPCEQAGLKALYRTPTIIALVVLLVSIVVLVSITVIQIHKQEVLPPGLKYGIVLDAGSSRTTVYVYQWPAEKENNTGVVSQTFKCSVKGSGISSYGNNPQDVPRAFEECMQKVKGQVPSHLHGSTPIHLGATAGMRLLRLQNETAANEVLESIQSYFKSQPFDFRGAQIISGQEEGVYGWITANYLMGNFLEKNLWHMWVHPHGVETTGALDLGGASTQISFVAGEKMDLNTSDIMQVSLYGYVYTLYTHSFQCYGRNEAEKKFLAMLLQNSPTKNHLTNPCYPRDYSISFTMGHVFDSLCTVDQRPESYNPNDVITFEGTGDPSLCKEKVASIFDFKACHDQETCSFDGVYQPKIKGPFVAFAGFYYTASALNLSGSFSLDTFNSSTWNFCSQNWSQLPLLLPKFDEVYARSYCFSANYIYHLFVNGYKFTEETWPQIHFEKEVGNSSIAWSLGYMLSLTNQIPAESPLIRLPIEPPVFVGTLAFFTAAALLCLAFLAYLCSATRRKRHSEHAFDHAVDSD
As to the kind of experiment: cell-based or functional assay.

Data on 1 molecule can be found in patent US20240052061A1.

B1: 8E1 hIgG1 (antibody, V domains shown)
VH: EQQLLESGGGLVQPGGSLRLSCAVSGFSLSSYAMGWVRQAPGKGLEFIGIISYSGNTYYASWAKGRFTISKDSSKNTVYLQMNSLRAEDTAVYFCARARYGGYSTNSYYLNIWGPGTLVTVSS
VL: DVQMTQSPSTLSASVGDRVTITCQASENIYRVLAWYQQKPGKRPKLLIYGASNLESGVPSRFSGSGSGTEYTLTISSLQPDDFATYYCQGVVYNSDDSAFGGGTKVEIK
In the case of B1, the ADCC EC50 (µg/mL), NFAT luciferase reporter Jurkat/hCD16a-158V worked out at 0.047 µg/mL; the ADCC fold increase in relation to parental clone at 1 µg/mL is 1.5 fold; the CDC % of Maximal Cytotoxicity turned out to be 25%; the CDC EC50 amounted to 0.867 µg/mL. In addition, the CDC: fold increase in the maximal CDC cytotoxicity over the parental 8E1 Hu/Ra chimeric clone was 2 fold and the Enzyme Activity Inhibition Capacity: % of Maximal Inhibition stood at 15%.
